The experiment concerns the target T1, peptide-8 (DEIVNKVL), derived from the ESCRT-III family member Vps2p.
T1 peptide: {5(6)‑carboxyfluorescein}-DEIVNKVL-NH2
Kind of experiment: fluorescence polarisation. For orientation: Fluorescence polarisation rises when a labelled molecule tumbles more slowly, as on binding a larger partner.

B1: Vps4p^L7C/A43C (MIT domain stabilised by a disulfide bond) (enzyme, S. cerevisiae, UniProt P52917 1-437, looked up)
chain: MSTGDFCTKGIELVQKAIDLDTATQYEEAYTAYYNGLDYLMLCLKYEKNPKSKDLIRAKFTEYLNRAEQLKKHLESEEANAAKKSPSAGSGSNGGNKKISQEEGEDNGGEDNKKLRGALSSAILSEKPNVKWEDVAGLEGAKEALKEAVILPVKFPHLFKGNRKPTSGILLYGPPGTGKSYLAKAVATEANSTFFSVSSSDLVSKWMGESEKLVKQLFAMARENKPSIIFIDEVDALTGTRGEGESEASRRIKTELLVQMNGVGNDSQGVLVLGATNIPWQLDSAIRRRFERRIYIPLPDLAARTTMFEINVGDTPCVLTKEDYRTLGAMTEGYSGSDIAVVVKDALMQPIRKIQSATHFKDVSTEDDETRKLTPCSPGDDGAIEMSWTDIEADELKEPDLTIKDFLKAIKSTRPTVNEDDLLKQEQFTRDFGQEGN
modifications: disulfide bond between C7 and C43 of the MIT domain
For B1, the “fold tighter than Vps4p” value amounted to 8 fold.

The values are drawn from publication PMC11398535 (bioRxiv, 2024).
